From the RNAGym collection of RNA variant scans (doi:10.1093/molbev/msab373) come the findings set out here.

B1: Azoarcus group I ribozyme (parent)
chain: GUGCCUUGCGCCGGGAAACCACGCAAGGGAUGGUGUCAAAUUCGGCGAAACCUAAGCGCCCGCCCGGGCGUAUGGCAACGCCGAGCCAAGCUUCGGCGCCUGCGCCGAUGAAGGUGUAGAGACUAGACGGCACCCACCUAAGGCAAACGCUAUGGUGAAGGCAUAGUCCAGGGAGUGGCGAAAGUCACACAAACCGG

In the series the parent is B1. Description: reverse-splicing fitness (ratio to wild type); higher = more active; in vitro selection; Mg2+ level not given. In outline:
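An in vitro group I ribozyme library with randomized positions was T7-transcribed and gel-purified. In triplicate, 10 pmol RNA in EPPS pH 7.5 was reacted with 50 pmoles of a 30-nt RNA substrate for 1 h at 37 °C across several added MgCl2 levels (1–48 mM), then stopped with EDTA. Products were reverse transcribed from a substrate-complementary primer, PCR-amplified and sequenced (HiSeq 4000). Fitness is a variant's read proportion after selection over that before, normalised to wild type.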
Turning to C82A A111G A120U A145U C150A C169U U176A, the reverse-splicing fitness was 0.00277.

Take A120G A145U C169A U176C: the reverse-splicing fitness was found to be 0.166.

As to C82G A111C A145U C150G C169A U176G, the reverse-splicing fitness was found to be 0.00734.

Turning to C82G A120G C150U C169U, the reverse-splicing fitness worked out at 0.0164.

As to C82A A111C A120C A145U C169A, the reverse-splicing fitness was found to be 0.00864.

As to C82G A111C A120U A145C U176A, the reverse-splicing fitness is 0.0111.

C82G A111C A120C A145U C150U C169A U176G: the reverse-splicing fitness was determined as 0.00748.

For A111U A120U A145U C150U C169U U176C, the reverse-splicing fitness amounted to 0.00988.

Consider C82U A111C A120U A145C C150G C169A, for which the reverse-splicing fitness amounted to 0.00271.

On to C82A A111C A120C A145G C150A C169A U176G, for which the reverse-splicing fitness is 0.009.

Consider A111G A120U A145U C150A C169A U176A, for which the reverse-splicing fitness is 0.00244.

C82U A111C A120G A145U C150G C169A U176G: the reverse-splicing fitness is 0.00541.

In the case of C82G A111G A120C A145U C150U C169G, the reverse-splicing fitness was determined as 0.0094.

For the variant C82U A120G A145U C150A C169A U176A, the reverse-splicing fitness is 0.0112.

As to C82G A111G A120G A145U C150G C169A U176A, the reverse-splicing fitness was 0.0118.

As to C82G A111U A145G C150G C169A U176G, the reverse-splicing fitness worked out at 0.00877.

With C82G A111C A120U A145C C150U C169U U176G, the reverse-splicing fitness worked out at 0.00249.

As for C82G A111C A120G C150U C169G U176C, the reverse-splicing fitness was determined as 0.0187.

For the variant C82G A111U A120U A145U C150U C169U U176G, the reverse-splicing fitness stood at 0.0023.

For C82G A111G A120G A145C C150A C169U U176A, the reverse-splicing fitness was 0.021.

As for A111C C150A, the reverse-splicing fitness was found to be 0.303.

Turning to C82A A120C C169A U176A, the reverse-splicing fitness was determined as 0.0198.

With A111U A120U C150U, the reverse-splicing fitness was found to be 0.374.

As to C82U A145U C169A U176C, the reverse-splicing fitness came to 0.00648.

A111C A120G A145G C150G U176C: the reverse-splicing fitness worked out at 0.0155.

As to C82G A111G A120G C150U C169G U176C, the reverse-splicing fitness is 0.0206.

As to C82U A120G A145C C169G U176A, the reverse-splicing fitness stood at 0.0276.

In the case of C82A A111C A120C A145G U176A, the reverse-splicing fitness is 0.0152.

For the variant A111U C150G C169U, the reverse-splicing fitness turned out to be 0.0141.

For C82U A111G A120G C169G U176G, the reverse-splicing fitness stood at 0.00369.

In the case of A111C A120G A145G C150G C169G, the reverse-splicing fitness was 0.0248.

For C82A A111C A120G A145G C169U U176G, the reverse-splicing fitness turned out to be 0.00473.

Regarding C82U A120G A145U C150U U176G, the reverse-splicing fitness was found to be 0.00369.

As to C82A A111C A120G C150U, the reverse-splicing fitness amounted to 0.0107.

Consider C82A A145C C150G, for which the reverse-splicing fitness worked out at 0.0739.

As for C82A A111G A145G C150U C169G, the reverse-splicing fitness was determined as 0.0102.

Regarding A111G A120U C169A, the reverse-splicing fitness is 0.00619.

For the variant C82A A111U A120C C150U U176C, the reverse-splicing fitness is 0.022.

C82G A111G A120U A145C C150G C169U: the reverse-splicing fitness was determined as 0.00296.

For the variant C82U A111U A120U C150G C169A, the reverse-splicing fitness was found to be 0.00657.

Take A120U A145C C150G C169A U176A: the reverse-splicing fitness stood at 0.00247.

C82A A111U A120G A145C C150A C169U U176C: the reverse-splicing fitness worked out at 0.0122.

In the case of C82G A111C A120G A145G C150A C169A U176C, the reverse-splicing fitness was 0.0198.

On to C82U A111G A120U A145C C169A U176C, for which the reverse-splicing fitness was 0.00194.

Consider A111U A120G A145C C150A C169A, for which the reverse-splicing fitness was 0.00967.

As to C82U A111G A145C C150G C169A U176G, the reverse-splicing fitness came out at 0.00511.

Take A111G A145C C150G C169G U176A: the reverse-splicing fitness turned out to be 0.00824.

Consider A120C C150U C169U U176G, for which the reverse-splicing fitness was found to be 0.0106.

Regarding C82A A111U A120C C150U C169G U176G, the reverse-splicing fitness was found to be 0.00747.

Regarding C82U A120C C150G U176C, the reverse-splicing fitness came to 0.0118.

Turning to C82A A111U A120C A145C C150A, the reverse-splicing fitness came out at 0.012.

With C82A A111C A120G A145U C169A, the reverse-splicing fitness worked out at 0.00893.

On to C82U A111C A120U A145C C150A C169G U176G, for which the reverse-splicing fitness was 0.00223.

In the case of C82U A111C A120G A145G C169U U176A, the reverse-splicing fitness was determined as 0.0161.

As to C82A A111G A120U C150A U176C, the reverse-splicing fitness worked out at 0.00802.

As for C82G A120G C150A C169U U176C, the reverse-splicing fitness came to 0.02.

With C82U A111C A120U C150A C169A U176A, the reverse-splicing fitness came to 0.00438.

For the variant C82G A111C A120C A145U C150G C169G U176G, the reverse-splicing fitness is 0.00673.

For the variant C82A A111U A120U A145U C150G C169G U176A, the reverse-splicing fitness is 0.00327.

A120C A145C C150U C169U: the reverse-splicing fitness was found to be 0.194.

For the variant C82U A111C A120C A145C C150G C169A U176C, the reverse-splicing fitness worked out at 0.00704.

In the case of C82A A111U A120U C169G U176A, the reverse-splicing fitness is 0.00417.

As for A120G A145C C150G C169U U176G, the reverse-splicing fitness is 0.00576.

As for C82A A111C A120U A145G C150U U176C, the reverse-splicing fitness was 0.0108.

For A111C A120C A145U C150G U176G, the reverse-splicing fitness is 0.00607.

As for A111C A120U C150G C169A, the reverse-splicing fitness is 0.00675.

As to C82U A111C A145U C150U C169U U176A, the reverse-splicing fitness is 0.0154.

As for C82A A111U A120U A145U C169G, the reverse-splicing fitness turned out to be 0.00304.

As for C82A A120G A145U C150U C169U, the reverse-splicing fitness came to 0.0133.

C82U A120U A145C C169A U176G: the reverse-splicing fitness worked out at 0.00159.

C82G A120C A145G C150G U176A: the reverse-splicing fitness was found to be 0.0102.

Consider C82G A111G A120G A145G C169G U176G, for which the reverse-splicing fitness turned out to be 0.0045.

With C82A A111U A145U C150G C169U U176C, the reverse-splicing fitness amounted to 0.0122.

As for C82A A111U A145U C150G C169U U176A, the reverse-splicing fitness came to 0.00775.

C82G A111C A120G A145U C150G C169U U176A: the reverse-splicing fitness was 0.00847.

For A111C A120G A145C C169U U176A, the reverse-splicing fitness is 0.0395.

Take A111G A145C U176C: the reverse-splicing fitness is 0.78.

As for A111C A120G C150U C169G, the reverse-splicing fitness worked out at 0.112.

Regarding C82G A111C A120G A145C C169G U176G, the reverse-splicing fitness was found to be 0.00429.

Take C82U A111U A120C A145U C169G U176C: the reverse-splicing fitness came to 0.00955.

Regarding A111C A120C U176G, the reverse-splicing fitness was 0.0393.

As for C82A A111G C169A U176C, the reverse-splicing fitness amounted to 0.019.

C82A A111U A120U A145U C150A C169G U176A: the reverse-splicing fitness stood at 0.00333.
